“Also recorded” adds a separate entry of the source.
Assays:
[1] = test system: agroinfiltrated Arabidopsis thaliana Col-0 leaves; assay: Receptor internalization: decrease of GFP fluorescence by confocal microscopy in agroinfiltrated Arabidopsis Col-0 leaves; assay type: cell-based; conditions: for decrease of plasma membrane-associated fluorescence signal: explants at 2 dpi; for fluorescence variation upon treatment with elfl8: 10 μM elfl8, 30 min, EFR up to 1 mM elicitor (data not shown); for fluorescence variation upon treatment with OGs: up to 30 min, no EDTA; for decrease of fluorescence from the cell membrane: OGs 100 μg/ml 30 min pre-stimulation, then 5 mM EDTA
Protocol: PCR templates are shown in bold. Primers listed in Table 1 are shown in capital letters. Stable transgenic lines were generated using the standard A. tumefaciens-mediated gene transfer procedure of inflorescence infiltration (Bent et al., 2006). Independent transformed plant pools were kept separate for the selection of independent transgenic lines based on their phosphinotrycin resistance and leaves GFP fluorescence. Tobacco and Arabidopsis transient transgenic lines were prepared by infiltrating with Agrobacterium tumefaciens carrying the individual constructs, as described by Reca (2008).
The GFP-dependent fluorescence was monitored from 2 to 4 days post infection in cells of the lower epidermis. Pieces of leaf were randomly cut from the infected area and mounted in water or supplemented with elicitors for microscopic observations. Flg22 and elfl8 were used at 10 μM while oligosaccharides were used at 100 μg/mL. Materials were analyzed using a Leica DM IRE epifluorescence microscope equipped with a digital cooled camera (DFC350FX R2; Leica). GFP fluorescence was excited with a 488-nm laser line, and emitted fluorescence was collected at 543-nm. The Leica Confocal Software and Adobe Photoshop 5.0 were used for post-acquisition image processing. All samples were imaged with the 40× or 100× oil objectives. Pictures were taken in Kahlman frame giving an average of 16 scans for the dynamics of internalization and 4 scans for the cellular localizations. […]
The dynamics of fluorescence localization upon treatment with elicitors was then studied. Whereas endocytosis of surface receptors upon ligand binding often occurs in animals (Warren and Landgraf 2006), this mechanism in plants has emerged only recently (Geldner & Robatzek 2008) and, so far, FLS2 is the only receptor involved in plant immunity shown to undergo endocytosis upon the specific stimulation with flg22 (Robatzek et al., 2006). The authors tested the effect of flg22 and elf 18, i.e. the peptides specifically recognized by FLS2 and EFR respectively, and oligogalacturonides with a degree of polymerization between 10 and 16 (OGs), which act as general elicitors of defense responses in several plants. Explants from agroinfiltrated Arabidopsis leaves at 2 dpi were treated with elicitors and then subjected to confocal microscopy analysis. […] Instead, when eJMC-expressing explants were stimulated with flg22, the fluorescent signal decreased by 25% and 40% after 20 min and 30 min, respectively (FIG. 3B).
The first chimeric receptor, indicated as WEG, comprised the WAK1 ectodomain fused to the TM-iJM-kinase portion of EFR and was designed to test the ability of the WAK1 ectodomain to perceive OGs and transmit the signal inside the cell. […] Both WEG and EWAK as well as WAK1 were fused to GFP and used in agroinfiltration experiments (FIG. 5A). […] Western-blot analysis using GFP-specific antibodies on proteins from IWF and microsomal fractions prepared from infiltrated leaves confirmed the plasma membrane localization of both fluorescent chimeras (FIG. 5D). The effect of OGs on the internalization of WEG was followed in agroinfiltrated Arabidopsis Col-0 leaves. […] This might be due to the inability of WEG to uncouple its ectodomain from pectins, since it is known that WAK1 strongly binds to pectin and only denaturing treatments allow its separation from cell wall (He et al., 1996). On the other hand, affinity studies have shown that WAK1 interact with cell wall pectins that are in a Ca^2+-induced conformation (i.e. the structures called “egg boxes”) and that the interaction is disrupted by adding a chelating agent such as EDTA (Decreux et al., 2005; Cabrera et al., 2008). The authors therefore tested whether OG-induced internalization of WEG occurred in the presence of 5 mM EDTA. WEG-expressing agroinfiltrated leaves were syringe-infiltrated with OGs and after 30 min the tissues were mounted in the presence of EDTA for confocal microscopy analysis. […]

[2] = test system: Agrobacterium tumefaciens GV3101; assay: Growth of Agrobacterium in N. tabacum tissues transiently expressing receptor proteins; assay type: in vivo; conditions: 24 h after inoculation, tobacco tissues expressing the receptor
Protocol: F) Growth of Agrobacterium in N. tabacum tissues transiently expressing receptor proteins. Tobacco leaves were infiltrated with Agrobacterium expressing the indicated receptors and the number of Agrobacterium colony-forming units (c.f.u.) in the tissues was analyzed soon after infiltration (white bars) and 24 h (gray bars). EFR and eJMC were used as positive and negative controls, respectively. For each receptor, three samples were analyzed in five independent experiments. *, p<0.005.
(A) Growth of A. tumefaciens in N. tabacum tissues transiently expressing receptor proteins. Tobacco leaves were infiltrated with Agrobacterium carrying the indicated receptor constructs and the number of Agrobacterium colony-forming units (c.f.u.) in the tissues was analyzed immediately after infiltration (white bars) and after 24 h (gray bars). EFR and eJMC were used as positive and negative controls, respectively. For each receptor, three samples were analyzed in five independent experiments. Asterisks indicate statistically significant differences against control (Col-0 for WAK1 plants and Col-0 efr for WEG and EWAK plants). (B) Lesion development in Arabidopsis wild type (Col-0) and mutant Col-0 efr plants and in transgenic plants expressing WAK1, WEG and EWAK plants inoculated with B. cinerea at 48 h post-inoculation. Values are means±s.e.m. of at least 16 lesions. The same experiment was performed in a second independent transgenic line expressing WAK1 with similar results. Asterisks indicate statistically significant differences against control (Col-0 for WAK1 plants and Col-0 efr for WEG and EWAK plants).
Agrobacterium tumefaciens GV3101 strain infections was performed as described in Katagiri et al., (2002) and using a concentration of Agrobacterium corresponding at an OD600 of 1.0 in 10 mM MgCl2 and 600 μM acetosyringone. After 24 h of infiltration, serial dilution of Agrobacterium colonies were deposited on LB agar supplemented with gentamycin and rifampicin and grown for 2-3 days at 28° C. in the dark. At least 5 independent plants and 3 different leaves by plant, were used per experiment. Pectobacterium carotovorum subsp. carotovorum infections Pectobacterium carotovorum subsp. carotovorum (formely Erwinia carotovora; Gardan et al., 2003) (strain DMSZ 30169) was obtained from DSMZ GmbH (Germany). A liquid colture using 10 ml LB medium was prepared. After 16 h of growth at 28° C. on rotary shaker at 250 rpm, bacterial cells were harvested by centrifugation and the pellet was resuspended in 50 mM potassium phosphate buffer pH 7.0 corresponding to 5×10^7 CFU/ml.

[3] = 10 μM flg22, after 20 min of stimulation
[4] = 10 μM flg22, after 30 min of stimulation

With FLS2 [reference compound] the “decrease of plasma membrane-associated fluorescence signal” value [1, 3] was 15%, the “decrease of plasma membrane-associated fluorescence signal” value [1, 4] was 30% and the “decrease of fluorescence in the presence of EDTA upon stimulation with OGs” value ([1]; 100 μg/ml OGs, 5 mM EDTA) was “No decrease of fluorescence”.

For “eJMC: chimera (Arg806FLS2-Val650EFR): LRR and eJM domains of FLS2 fused upstream of TM, iJM and kinase domains of EFR, GFP-fused”, the “fluorescence variation upon treatment with elfl8” value [1] was “did not induce any significant fluorescence variation”, the “decrease of plasma membrane-associated fluorescence signal” value [1, 3] was 25% and the “decrease of plasma membrane-associated fluorescence signal” value [1, 4] was 40%. The “fluorescence variation upon treatment with OGs” value ([1]; 100 μg/ml OGs) was “did not induce any significant fluorescence variation” and the “effect on the number of living Agrobacterium cells” value [2] was “no significant effect; also recorded: No significant change”.

B1: EFR: Arabidopsis LRR receptor kinase Elongation Factor Tu Receptor (AT5G20480); GFP-fused control (protein)
chain: RFSNETDMQALLEFKSQVSENNKREVLASWNHSSPFCNWIGVTCGRRRERVISLNLGGFKLTGVISPSIGNLSFLRLLNLADNSFGSTIPQKVGRLFRLQYLNMSYNLLEGRIPSSLSNCSRLSTVDLSSNHLGHGVPSELGSLSKLAILDLSKNNLTGNFPASLGNLTSLQKLDFAYNQMRGEIPDEVARLTQMVFFQIALNSFSGGFPPALYNISSLESLSLADNSFSGNLRADFGYLLPNLRRLLLGTNQFTGAIPKTLANISSLERFDISSNYLSGSIPLSFGKLRNLWWLGIRNNSLGNNSSSGLEFIGAVANCTQLEYLDVGYNRLGGELPASIANLSTTLTSLFLGQNLISGTIPHDIGNLVSLQELSLETNMLSGELPVSFGKLLNLQVVDLYSNAISGEIPSYFGNMTRLQKLHLNSNSFHGRIPQSLGRCRYLLDLWMDTNRLNGTIPQEILQIPSLAYIDLSNNFLTGHFPEEVGKLELLVGLGASYNKLSGKMPQAIGGCLSMEFLFMQGNSFDGAIPDISRLVSLKNVDFSNNNLSGRIPRYLASLPSLRNLNLSMNKFEGRVPTTGVFRNATAVSVFGNTNICGGVREMQLKPCIVQASPRKRKPLSVRKKVVSGICIGIASLLLIIIVASLCWFMKRKKKNNASDGNPSDSTTLGMFHEKVSYEELHSATSRFSSTNLIGSGNFGNVFKGLLGPENKLVAVKVLNLLKHGATKSFMAECETFKGIRHRNLVKLITVCSSLDSEGNDFRALVYEFMPKGSLDMWLQLEDLERVNDHSRSLTPAEKLNIAIDVASALEYLHVHCHDPVAHCDIKPSNILLDDDLTAHVSDFGLAQLLYKYDRESFLNQFSSAGVRGTIGYAAPEYGMGGQPSIQGDVYSFGILLLEMFSGKKPTDESFAGDYNLHSYTKSILSGCTSSGGSNAIDEGLRLVLQVGIKCSEEYPRDRMRTDEAVRELISIRSKFFSSKTTITESPRDAPQSSPQEWMLNTDMHTM
In the case of B1, the “fluorescence variation upon treatment with elfl8” value [1] is reported as “no significant decrease of fluorescence” and the “decrease in the number of living Agrobacterium cells” value ([2]; p<0.005) is reported as 30%.

B2: WEG: chimeric receptor: WAK1 ectodomain fused to the TM-iJM-kinase portion of EFR, GFP-fused (protein)
chain: QHQPGENCQNKCGNITIEYPFGISSGCYYPGNESFSITCKEDRPHVLSDIEVANFNHSGQLQVLLNRSSTCYDEQGKKTEEDSSFTLENLSLSANNKLTAVGCNALSLLDTFGMQNYSTACLSLCDSPPEADGECNGRGCCRVDVSAPLDSYTFETTSGRIKHMTSFHDFSPCTYAFLVEDDKFNFSSTEDLLNLRNVMRFPVLLDWSVGNQTCEQVGSTSICGGNSTCLDSTPRNGYICRCNEGFDGNPYLSAGCQDVNECTTSSTIHRHNCSDPKTCRNKVGGFYCKCQSGYRLDTTTMSCKRKEVVSGICIGIASLLLIIIVASLCWFMKRKKKNNASDGNPSDSTTLGMFHEKVSYEELHSATSRFSSTNLIGSGNFGNVFKGLLGPENKLVAVKVLNLLKHGATKSFMAECETFKGIRHRNLVKLITVCSSLDSEGNDFRALVYEFMPKGSLDMWLQLEDLERVNDHSRSLTPAEKLNIAIDVASALEYLHVHCHDPVAHCDIKPSNILLDDDLTAHVSDFGLAQLLYKYDRESFLNQFSSAGVRGTIGYAAPEYGMGGQPSIQGDVYSFGILLLEMFSGKKPTDESFAGDYNLHSYTKSILSGCTSSGGSNAIDEGLRLVLQVGIKCSEEYPRDRMRTDEAVRELISIRSKFFSSKTTITESPRDAPQSSPQEWMLNTDMHTM
modifications: left off: large carriers
B2 was tested, and the “decrease of fluorescence in the presence of EDTA upon stimulation with flg22” value ([1]; 10 μM flg22, 5 mM EDTA) was “No decrease of fluorescence”, the “internalization in the presence of EDTA upon stimulation with oligomannuronides (OMs)” value ([1]; 100 μg/mL OMs, EDTA) was “did not occur” and the “internalization in the presence of EDTA upon stimulation with 3-6 OGs” value ([1]; 100 μg/ml 3-6 OGs, EDTA) was “did not occur”. For the same molecule, the “fluorescence variation upon treatment with OGs” value ([1]; 100 μg/ml OGs) was “No decrease of the plasma membrane-associated fluorescence”, the “decrease of fluorescence from the cell membrane” value ([1]; after 20 min) was 15% and the “decrease of fluorescence from the cell membrane” value ([1]; after 30 min) was 25%. For the same molecule, the “effect on the number of living Agrobacterium cells” value [2] was “no significant effect; also recorded: No significant change”.

Source: US9499823B2, “Constructs expressing chimeric receptors and use thereof for the controlled activation of defence response to pathogens in plants” (priority 2009, dated 2016)
